According to publication PMC10953559:
Where “and” joins values, the source holds several entries; their conditions need not be identical. Equal entries are not always repeated.

Target: GroEL14 as used with the substrate proteins NanA and DapA (E. coli) (UniProt P0A6F5)
Test: native MS; CE-MS; 6 µM GroEL14 with 6 or 12 µM substrate monomers, denatured in 6.5 M GuHCl and 9 mM DTT and diluted 30-fold into GroEL14 buffer pH 7.5 (200 mM GuHCl, 0.3 mM DTT left); no ATP, no GroES; BGE 50 mM ammonium acetate pH 6.7

Chain of N-acetyl neuraminic acid aldolase, denatured monomer (NanA) (P0A6L4 2-297): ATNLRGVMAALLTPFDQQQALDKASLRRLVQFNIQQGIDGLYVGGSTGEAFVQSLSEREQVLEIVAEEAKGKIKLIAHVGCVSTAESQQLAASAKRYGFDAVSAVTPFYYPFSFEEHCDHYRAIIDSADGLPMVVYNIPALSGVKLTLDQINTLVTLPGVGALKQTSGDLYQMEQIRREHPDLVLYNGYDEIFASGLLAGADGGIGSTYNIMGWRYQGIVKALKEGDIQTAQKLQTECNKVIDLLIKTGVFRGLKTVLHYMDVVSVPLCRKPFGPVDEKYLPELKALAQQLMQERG

share of the total signal intensity, GroEL14-NanA1 complex: 10% | share of the total signal intensity, GroEL14-NanA2 complex: 90% | stoichiometry N (NanA monomers per GroEL14): 1 and 2
Substance: N-acetyl neuraminic acid aldolase, denatured monomer (NanA) (from UniProt P0A6L4 2-297) (enzyme)
